The source of these data is article PMC13264800.

pKd: −log10 of the molar value.

Assay [1] concerns the target recombinant human IgE (trastuzumab-IgE; anti-Her2-IgE) (human). Kind of assay: SEC-MALS; trastuzumab-IgE mixed with anti-IgE IgG at different molar ratios.
The target is the same in assay [2]. Kind of assay: SPR; Biacore X100, HBS-EP+ running buffer; Her2 amine-coupled on a CM5 chip, trastuzumab-IgE captured via Her2; anti-IgE as full-length IgG or Fab injected (1.56-25 nM or 1.56-50 nM), association 120 s, dissociation 300 s; 1:1 langmuir fit. (Surface plasmon resonance follows binding to a sensor surface in real time, without labels.)
Assay [3] addresses recombinant macaque IgE (trastuzumab-IgE; anti-Her2-IgE) (macaque). Described as above.

As usually defined, the pKd is −log10 of the Kd, conventionally taken in molar units. In the case of Omalizumab full-length IgG (antibody), in assay [1], the stoichiometry N (4:4 (anti-IgE:IgE)) worked out at 4. In addition, the pKd in assay [2] is 10.23; in assay [3], 10.27.
Broadly, the koff is the rate constant with which the complex falls apart. The term kon denotes a measure of how fast the partners come together. With Omalizumab Fab, in assay [2], the pKd is 7.84, the koff came to 0.00614 s⁻¹ and the kon worked out at 420000 M⁻¹ s⁻¹. Moreover, in assay [3], the pKd is 7.79, the koff was 0.00811 s⁻¹ and the kon is 504000 M⁻¹ s⁻¹.
